# T1: CD46 (UniProt P15529 35-343)
# T1 construct: The form used in the Kd measurement is not described
# T1 sequence: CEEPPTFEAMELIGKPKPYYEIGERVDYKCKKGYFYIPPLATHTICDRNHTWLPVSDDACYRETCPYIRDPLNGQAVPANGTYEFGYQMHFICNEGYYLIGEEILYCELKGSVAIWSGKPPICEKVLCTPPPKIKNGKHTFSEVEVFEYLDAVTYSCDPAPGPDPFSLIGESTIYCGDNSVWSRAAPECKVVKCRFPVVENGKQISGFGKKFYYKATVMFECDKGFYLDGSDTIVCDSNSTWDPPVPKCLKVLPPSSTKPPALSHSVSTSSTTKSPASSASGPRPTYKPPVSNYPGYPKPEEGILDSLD
# Biological target: T1, CD46
# Assay: Kd of knob for CD46; method not stated
row,Binder,Kd [nM]
1,"Ad11 (fiber knob) (other, also called B7) LWTGVNPTEANCQIMNSSESNDCKLILTLVKTGALVTAFVYVIGVSNNFNMLTTHRNINFTAELFFDSTGNLLTRLSSLKTPLNHKSGQNMATGAITNAKGFMPSTTAYPFNDNSREKENYIYGTCYYTASDRTAFPIDISVMLNRRAINDETSYCIRITWSWNTGDAPEVQTSATTLVTSPFTFYYIREDD",11.2
2,Mutated Ad35 Knob A8: Ile192Val Ile256Val (other) LWTGINPPPNCQIVENTNTNDGKLTLVLVKNGGLVNGYVSLVGVSDTVNQMFTQKTANVQLRLYFDSSGNLLTEESDLKIPLKNKSSTATSETVASSKAFMPSTTAYPFNTTTRDSENYIHGVCYYMTSYDRSLFPLNISIMLNSRMISSNVAYAIQFEWNLNASESPESNIATLTTSPFFFSYITEDDN,13.7
3,"wtAd35(207Asp) knob (other, also called B2) LWTGINPPPNCQIVENTNTNDGKLTLVLVKNGGLVNGYVSLVGVSDTVNQMFTQKTANIQLRLYFDSSGNLLTDESDLKIPLKNKSSTATSETVASSKAFMPSTTAYPFNTTTRDSENYIHGICYYMTSYDRSLFPLNISIMLNSRMISSNVAYAIQFEWNLNASESPESNIATLTTSPFFFSYITEDDN",15
